This is an account of results in patent publication US20180216133A1.

Test [1] concerns the target AAVhu37 capsid (vector AAV2/AAVhu37.TBG.EGFP.bGH) (adeno-associated virus hu37). The test can be described thus: AVB Sepharose HiTrap column, purified vector mix AAV8+AAVhu37+AAVrh10; genome copies per fraction by real-time PCR. (In qPCR the cycle at which signal appears reflects the starting amount.)
For test [2], the target named is AAV8 capsid (vector) (adeno-associated virus 8). The test is described as above.
The target of test [3] is AAV3B capsid (vector AAV2/3B.CB7.CI.ffluciferase.RBG) (adeno-associated virus 3B). The experiment in a line: AVB Sepharose HiTrap column, clarified AAV3B product; genome copies per fraction by real-time PCR.
The target in test [4] is rh.64R1-SPAKFA capsid mutant (NQAKLN→SPAKFA) (adeno-associated virus rh.64R1 (engineered)). The test can be described thus: AVB Sepharose HiTrap column, clarified culture supernatant, wild type vs SPAKFA mutant head-to-head; real-time PCR.
The target of test [5] is AAV9-SPAKFA capsid mutant (NKDKLN→SPAKFA) (adeno-associated virus 9 (engineered)). The description is as above.
Test [6] addresses AAVrh64R1 capsid (vector) (adeno-associated virus rh.64R1). Described as above.
The target of test [7] is AAV9 capsid (vector, CB7.CI.ffluciferase.RBG) (adeno-associated virus 9). Described as above.
Test [8] deals with AAV8-SPAKFA capsid mutant (NQSKLN→SPAKFA) (adeno-associated virus 8 (engineered)). The description is as above.
In test [9] the target is AAV8 capsid (vector) (adeno-associated virus 8). Described as above.
Test [10] has as its target AAV3B-NKDKLN capsid mutant (SPAKFA→NKDKLN) (adeno-associated virus 3B (engineered)). The test can be described thus: AVB Sepharose HiTrap column, DPBS wash fraction; real-time PCR.
Test [11] has as its target AAV3B capsid (vector AAV2/3B.CB7.CI.ffluciferase.RBG) (adeno-associated virus 3B). Described as above.
The target of test [12] is AAVrh64R1 capsid (vector) (adeno-associated virus rh.64R1). The test can be described thus: AVB Sepharose HiTrap column, purified vector mix AAVrh64R1+AAVrh10; genome copies per fraction by real-time PCR.
Test [13] addresses AAV3B-NKDKLN capsid mutant (SPAKFA→NKDKLN) (adeno-associated virus 3B (engineered)). The test can be described thus: AVB Sepharose HiTrap column, clarified culture supernatant, AAV3B vs AAV3B-NKDKLN head-to-head; real-time PCR.
Test [14] has as its target AAV3B capsid (vector AAV2/3B.CB7.CI.ffluciferase.RBG) (adeno-associated virus 3B). The description is as above.
The target of test [15] is AAVrh10 capsid (vector AAV2/AAVrh10.CMV.PI.Cre.RBG) (adeno-associated virus rh10). The test can be described thus: AVB Sepharose HiTrap column, purified vector mixes; genome copies per fraction by real-time PCR (average of two runs).
For test [16], the target named is AAV3B-NKDKLN capsid mutant (SPAKFA→NKDKLN) (adeno-associated virus 3B (engineered)). The test can be described thus: AVB Sepharose HiTrap column, AVB.C (1 M NaCl) wash fraction; real-time PCR.
Test [17] addresses AAV3B capsid (vector AAV2/3B.CB7.CI.ffluciferase.RBG) (adeno-associated virus 3B). The description is as above.
Test [18] has as its target AAV3B-NKDKLN capsid mutant (SPAKFA→NKDKLN) (adeno-associated virus 3B (engineered)). The experiment in a line: AVB Sepharose HiTrap column, unbound vector in flow-through; real-time PCR.
The target in test [19] is AAV3B capsid (vector AAV2/3B.CB7.CI.ffluciferase.RBG) (adeno-associated virus 3B). Described as above.

Take “AVB Sepharose High Performance affinity resin ligand: 14kD fragment from a single chain llama antibody expressed in yeast (VHH)”: the percent of loaded vector genome in the elution fraction in test [1] was 82%; in test [2], 20%; in test [12], 22%; in [15], 84%. Moreover, the percent of vector genomes recovered in the elution fraction in test [3] turned out to be 98%. The percent recovery of loaded vector in the elution fraction (of total fractions) in test [4] amounted to 91%; in test [5], 51%; in [6], 18%; in test [7], 0.6%; in [8] it was 93%; in test [9], 30%. The percent of vector genomes in wash 1 (W1) fraction was determined as 0.1% in [10] and 0% in test [11]. The elution fraction yield in [13] is 87%; in test [14] it was 98%. Besides, the percent of vector genomes in wash 2 (W2) fraction in [16] is 4.6%; in test [17], 0.3%. In addition, the results for the percent of vector genomes in flow-through (FT) fraction in [18] and in test [19] were 8.2% and 1.3%, respectively.
